The record followed here is patent US20240166750A1.

In test [1] the target is Recombinant human FcγRIIIa-V158 (human) (UniProt P08637). The experiment in a line: SPR Biacore T200; antibody on protein A, FcγRIIIa-V158 analyte; 1:1 kinetic fit. (SPR reads the build-up and loss of mass on a sensor chip optically.)
Test [2] shares this target. As to the kind of experiment: SPR Biacore T200; antibody on Protein A, FcγRIIIa-V158 analyte; 1:1 fit.
Test [3] shares this target. The experiment in a line: SPR Biacore T200.
Test [4] deals with FcγRIIIa (V158) expressed on engineered Jurkat effector cells (UniProt P08637). The experiment in a line: cell-based or functional assay.
Test [5] addresses Recombinant human FcγRIIIa-V158 (human) (UniProt P08637). The experiment in a line: SPR Carterra LSA; Fc on protein AG, hFcγRIIIa-V158 analyte; 1:1 kinetic fit.
Test [6] addresses biotinylated recombinant human FcRn (human) (UniProt P55899). The experiment in a line: FcRn affinity chromatography, pH gradient 5.5-9.5.
Test [7] has the same target. The experiment in a line: SPR Biacore T200, pH 7.4; steady-state RU at 1000 nM antibody; SD 5.4 RU.
Test [8] concerns the target Recombinant human HPC4-tagged FcγRIIIa-V158 (human) (UniProt P08637). As to the kind of experiment: SPR Biacore T200; receptor captured by anti-HPC4, antibody analyte; steady-state RU.
For test [9], the target named is biotinylated recombinant human FcRn (human) (UniProt P55899). The experiment in a line: SPR Biacore T200, pH 6.0; biotin-FcRn on CAP chip, antibody analyte; bivalent fit, apparent KD; SD 10 nM.
Test [10] shares this target. As to the kind of experiment: SPR Biacore T200, pH 7.4; steady-state RU at 1000 nM antibody; SD 5.6 RU.
Test [11] has the same target. As to the kind of experiment: SPR Biacore T200, pH 6.0; biotin-FcRn on CAP chip, antibody analyte; bivalent fit, apparent KD; SD 47 nM.
For test [12], the target named is Recombinant human FcγRIIIa-V158 (human) (UniProt P08637). The experiment in a line: SPR Biacore T200; antibody on Protein A, FcγRIIIa-V158 analyte; 1:1 fit. This is another data set of the same source.
Test [13] addresses biotinylated recombinant human FcRn (human) (UniProt P55899). As to the kind of experiment: SPR Biacore T200, pH 7.4; steady-state RU at 1000 nM antibody; SD 0.2 RU.
Test [14] shares this target. As to the kind of experiment: SPR Biacore T200, pH 6.0; biotin-FcRn on CAP chip, antibody analyte; bivalent fit, apparent KD; SD 700 nM.
For test [15] the target is unchanged. The experiment in a line: SPR Biacore T200, pH 6.0; biotin-FcRn on CAP chip, antibody analyte; bivalent fit, apparent KD; SD 240 nM.
For test [16] the target is unchanged. The experiment in a line: SPR Biacore T200, pH 7.4; steady-state RU at 1000 nM antibody; SD 2.1 RU.
The target is the same in test [17]. The experiment in a line: SPR Biacore T200, pH 7.4; steady-state RU at 1000 nM antibody; SD 3.3 RU.
Test [18] shares this target. As to the kind of experiment: SPR Biacore T200, pH 6.0; biotin-FcRn on CAP chip, antibody analyte; bivalent fit, apparent KD; SD 260 nM.

Chain of biotinylated recombinant human FcRn (human) (P55899 24-297 limits assumed, chain 1 of 2): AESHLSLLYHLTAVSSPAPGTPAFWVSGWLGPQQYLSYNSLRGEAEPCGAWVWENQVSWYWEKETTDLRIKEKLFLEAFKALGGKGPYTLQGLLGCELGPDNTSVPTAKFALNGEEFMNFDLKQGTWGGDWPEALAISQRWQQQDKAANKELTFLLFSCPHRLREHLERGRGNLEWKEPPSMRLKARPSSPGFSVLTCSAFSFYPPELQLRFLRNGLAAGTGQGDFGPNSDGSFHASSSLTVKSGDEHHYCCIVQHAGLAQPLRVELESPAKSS
Chain of biotinylated recombinant human FcRn (human) (P61769 21-119 limits assumed, chain 2 of 2, further chain): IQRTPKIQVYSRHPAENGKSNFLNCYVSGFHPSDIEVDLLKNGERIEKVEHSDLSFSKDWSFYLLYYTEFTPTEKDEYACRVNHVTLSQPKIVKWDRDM

Regarding “DE (R292C/V302C) antibody specific for protein 5 (TPP-35708)”, in [1], the Fold KD WT stood at 31 fold, the Kd was 3.79 nM, the dissociation rate constant (koff) came out at 0.00832 s⁻¹ and the kon stood at 2.2e+06 M⁻¹ s⁻¹.

Regarding “DE (S239D/I332E) antibody specific for protein 1 (human IgG1)”, in [2], the Kd is 14 nM and the koff turned out to be 0.006 s⁻¹.

As for “DE (S239D/I332E) antibody specific for protein 1 containing oligomannose (human IgG1)”, in [3], the fold higher affinity than the unmodified DE antibody is 2.3 fold. Moreover, in test [4], the ADCC activity (ADCC reporter gene assay), fold vs DE antibody without modification amounted to 1.4 fold. In addition, in [2], the Kd worked out at 6 nM, the koff worked out at 0.002 s⁻¹ and the kon worked out at 400000 M⁻¹ s⁻¹.

For the substance “Fc fragment S298A, no kifunensine (from UniProt P01857 104-330)”, the Kd in [5] was 230 nM.

Take “Fc fragment S298A, with kifunensine (from UniProt P01857 104-330)”: in [5], the Kd stood at 21 nM.

Consider “Fc fragment S298C, no kifunensine (from UniProt P01857 104-330)”, for which the Kd in test [5] amounted to 86 nM.

Consider “Fc fragment S298C, with kifunensine (from UniProt P01857 104-330)”, for which, in [5], the Kd was found to be 24 nM.

Consider “LS antibody specific for protein 3, with kifunensine”, for which the pH of elution in [6] was found to be 7.81 pH. Moreover, in [7], the RU (steady state, pH 7.4) was 16.6 RU. Moreover, in test [8], the Fold Change (Kifunensine Treated vs Untreated) in FcγRIIIa Binding Affinity stood at 1.75 fold and the Fold Change versus WT in FcγRIIIa Binding Affinity with Kifunensine Treatment is 1.85 fold. Moreover, the Kd in test [9] was found to be 658 nM.

In the case of “LS antibody specific for protein 3, without kifunensine”, the pH of elution in test [6] was determined as 7.84 pH. The RU (steady state, pH 7.4) in test [10] is 19.4 RU. Further, in test [11], the Kd is 534 nM.

In the case of “WT antibody specific for protein 1 (human monoclonal IgG1, mAb A)”, in [2], the Kd was found to be 540 nM, the off-rate constant (koff) worked out at 0.031 s⁻¹ and the kon turned out to be 60000 M⁻¹ s⁻¹. Moreover, in test [12], the Kd stood at 557 nM, the dissociation rate constant (koff) came out at 0.107 s⁻¹ and the on-rate (kon) was found to be 190000 M⁻¹ s⁻¹.

For the substance “WT antibody specific for protein 1 containing oligomannose (human IgG1)”, in [2], the Kd amounted to 256 nM, the koff was 0.017 s⁻¹ and the kon was 70000 M⁻¹ s⁻¹.

Take “WT antibody specific for protein 3, with kifunensine”: in [6], the pH of elution amounted to 7.01 pH. Also, in test [13], the RU (steady state, pH 7.4) was 0.5 RU. For the same substance, in test [8], the Fold Change (Kifunensine Treated vs Untreated) in FcγRIIIa Binding Affinity amounted to 1.76 fold and the Fold Change versus WT in FcγRIIIa Binding Affinity with Kifunensine Treatment was 1.76 fold. In [14], the Kd worked out at 3040 nM.

Turning to “WT antibody specific for protein 3, without kifunensine”, in test [6], the pH of elution was 7.07 pH. Further, the RU (steady state, pH 7.4) in test [13] stood at 0.8 RU. For the same substance, the Kd in test [15] came out at 2000 nM.

In the case of “WT antibody specific for protein 5 (TPP-23424)”, the Kd in test [1] is 118 nM.

Turning to “YTE antibody specific for protein 3, with kifunensine”, in test [6], the pH of elution came to 7.68 pH. Further, the RU (steady state, pH 7.4) in [16] is 9 RU. For the same substance, in [8], the Fold Change (Kifunensine Treated vs Untreated) in FcγRIIIa Binding Affinity is 2.88 fold and the Fold Change versus WT in FcγRIIIa Binding Affinity with Kifunensine Treatment was 1.26 fold. Further, the Kd in [15] is 1210 nM.

As for “YTE antibody specific for protein 3, without kifunensine”, the pH of elution in test [6] was 7.74 pH. Further, the RU (steady state, pH 7.4) in [17] was 10.7 RU. In [18], the Kd worked out at 1270 nM.

“afucosylated DE (S239D/I332E) antibody specific for protein 1 (human IgG1)”: in [3], the fold increase in receptor binding compared to DE antibody turned out to be 3.5 fold. The ADCC activity (ADCC reporter gene assay), fold vs DE antibody without modification in [4] was 3.2 fold. Also, in [12], the Kd was 4 nM, the koff was 0.003 s⁻¹ and the kon worked out at 750000 M⁻¹ s⁻¹.

For the substance “afucosylated antibody specific for protein 5 (Creative Biolabs)”, in [1], the Fold KD WT was 8 fold, the Kd came out at 14.9 nM, the off-rate (koff) stood at 0.00925 s⁻¹ and the association rate constant (kon) was 622000 M⁻¹ s⁻¹.

On to “hypergalactosylated DE (S239D/I332E) antibody specific for protein 1 (human IgG1)”, for which the fold higher affinity than the unmodified DE antibody in [3] was determined as 1.8 fold. For the same substance, in test [2], the Kd turned out to be 8 nM, the koff came out at 0.004 s⁻¹ and the kon came to 480000 M⁻¹ s⁻¹.

By koff is commonly meant a measure of how fast the partners let go of each other. As a reminder, the kon is the rate constant with which the complex forms.
